This note sets out measurements from patent US20190062438A1 (CSL, published 2019).

Substitutions are numbered along the chain they refer to.

The target in assay [1] is T1, soluble Homo sapiens CD131 comprising a C-terminal 6xHis tag (human, UniProt P32927 17-438).
T1 construct: truncated after Ser438, C-terminal 6xHis; also called shCD131; shβc
T1 sequence: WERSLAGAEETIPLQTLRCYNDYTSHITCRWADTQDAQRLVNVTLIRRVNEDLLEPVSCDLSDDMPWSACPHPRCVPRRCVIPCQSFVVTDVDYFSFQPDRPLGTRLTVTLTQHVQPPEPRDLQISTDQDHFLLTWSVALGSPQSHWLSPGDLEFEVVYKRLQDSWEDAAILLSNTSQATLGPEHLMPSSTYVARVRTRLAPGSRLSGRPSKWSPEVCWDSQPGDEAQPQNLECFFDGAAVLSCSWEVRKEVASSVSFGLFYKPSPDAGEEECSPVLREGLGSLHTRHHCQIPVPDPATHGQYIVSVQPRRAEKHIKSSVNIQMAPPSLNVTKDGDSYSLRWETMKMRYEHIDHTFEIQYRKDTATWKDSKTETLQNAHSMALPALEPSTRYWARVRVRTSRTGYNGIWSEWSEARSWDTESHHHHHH
In words: SPR, Fab over captured shCD131. The procedure:
Binding kinetics were measured using SPR with a BIAcore™ A-100 instrument (GE Healthcare Life Sciences). An anti-C-terminal Hexa-His antibody (3H3) was immobilized on spots 1, 2, 4 and 5 of each flow cell of a CM-5 sensor chip (GE Healthcare Life Sciences) using amine-coupling chemistry (116). […] As shβc is a dimer, kinetics assays were performed with shβc captured on the sensor surface, and purified Fab injected as the analyte. Avidity effects were avoided by the use of Fab rather than whole IgG.
shCD131 was captured on spots 1 and 5 of each flow cell for 2 minutes at a concentration of 0.4 μg/ml. […] For some analysis purified Fab was injected over each flow cell for 3 minutes and dissociation was monitored for a further 10 minutes. Regeneration of the surface was performed after each cycle with a 40 second injection of 25 mM glycine, pH 2.0. The analysis was performed with Fabs at several concentrations between 100 and 0.31 nM, with each concentration analyzed twice and in random order. The analysis was performed at a flow rate of 30 μl/min in HBS-EP buffer (10 mM Hepes, 150 mM NaCl, 3 mM EDTA, 0.005% Tween 20, pH 7.4) at 37° C. Responses from spots 2 and 4 of each flow cell, (in which shβc was not captured, but otherwise treated identically), were subtracted from those of spots 1 and 5 respectively to produce reference subtracted data. Reference subtracted responses from a blank injection comprising buffer alone were subtracted from the resultant sensorgrams to produce double referenced data suitable for kinetic analysis. Double-referenced sensorgrams were fitted using non-linear regression to a model describing 1:1 kinetics, including a term for mass transport limitation. The Rₘₐₓ value was fitted locally to account for slight deviations in the level of sCD131 captured, with association rate (kₐ), dissociation rate (kd) and equilibrium dissociation constant (KD) fitted globally.

Another assay deals with T2, human CD131 (human, UniProt P32927 17-897).
T2 sequence: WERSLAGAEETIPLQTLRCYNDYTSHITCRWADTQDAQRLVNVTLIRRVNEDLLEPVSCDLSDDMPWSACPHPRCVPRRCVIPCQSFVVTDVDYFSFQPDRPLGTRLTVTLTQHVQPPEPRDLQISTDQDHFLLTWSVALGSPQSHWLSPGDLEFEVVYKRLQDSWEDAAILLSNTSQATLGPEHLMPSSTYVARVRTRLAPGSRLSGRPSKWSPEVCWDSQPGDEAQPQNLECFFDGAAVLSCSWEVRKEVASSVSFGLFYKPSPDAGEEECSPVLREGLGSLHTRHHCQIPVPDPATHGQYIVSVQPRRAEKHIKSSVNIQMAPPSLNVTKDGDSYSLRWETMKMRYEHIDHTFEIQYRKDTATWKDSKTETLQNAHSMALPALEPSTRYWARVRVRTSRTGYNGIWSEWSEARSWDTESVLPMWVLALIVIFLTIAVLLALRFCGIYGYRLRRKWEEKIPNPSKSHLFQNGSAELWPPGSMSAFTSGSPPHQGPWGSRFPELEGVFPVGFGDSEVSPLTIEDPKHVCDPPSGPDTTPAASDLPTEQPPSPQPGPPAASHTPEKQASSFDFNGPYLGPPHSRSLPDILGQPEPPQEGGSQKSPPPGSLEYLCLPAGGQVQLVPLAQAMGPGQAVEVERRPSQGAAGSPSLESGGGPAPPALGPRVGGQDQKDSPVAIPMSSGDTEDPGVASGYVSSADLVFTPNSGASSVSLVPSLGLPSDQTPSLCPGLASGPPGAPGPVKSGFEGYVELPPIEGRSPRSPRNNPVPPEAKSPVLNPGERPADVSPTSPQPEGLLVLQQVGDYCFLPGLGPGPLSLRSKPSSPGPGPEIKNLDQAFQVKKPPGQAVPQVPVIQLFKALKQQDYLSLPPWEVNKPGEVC
In words: cell-based or functional assay.

B1: 9A2-VR39.110 Fab (Fab, V domains shown)
VH: EVQLLESGGGLVQPGGSLRLSCAASGFTFVWYHHIWVRQAPGKGLEWVSSINGRGRVTYYADSVKGRFTISRDNSKNTLYLQMNSLRAEDTAVYYCARFYDSFFDIWGQGTMVTVSS
VL: DIQMTQSPSSVSASVGDRVTITCRASQGISSWLAWYQQKPGKAPKLLIYAASSLQSGVPSRFSGSGSGTDFTLTISSLQPEDFATYYCQQANSFPITFGQGTRLEIKR
notes: recombinant Fab
Broadly, the Kd is a measure of binding affinity in units of concentration. The low end stands for a tighter complex, the high end for a looser complex. By koff is commonly meant the rate constant with which the complex falls apart. Usually kon stands for the second-order rate constant of association. Low values mean slow association, high ones fast association. In assay [1], B1 gave a Kd of 0.11 nM, a koff of 0.00039 s⁻¹ and a kon of 3.8e+06 M⁻¹ s⁻¹.

B2: 9A2-VR39.109 (antibody, V domains shown)
VH: B1 VH with V30M
VL: B1 VL
As for B2, the “IC50 GM-CSF, TF-1 proliferation” value with human CD131 was found to be 0.24 nM.

B3: 9A2-VR39.122 (antibody, V domains shown)
VH: B1 VH with G26A, F27G, T28F, V30E, W31Y, H34M, I35L
VL: B1 VL
As for B3, the “IC50 GM-CSF, TF-1 proliferation” value in the assay with human CD131 came to 15 nM.

B4: 9A2-VR39.93 (antibody, V domains shown)
VH: B1 VH with V30S, W31H, H34M, I35L, A61N, D62P, S63A, V64W, G66K
VL: B1 VL
With B4, the “IC50 GM-CSF, TF-1 proliferation” value with human CD131 stood at 0.28 nM.

B5: 9A2-VR39.111 (antibody, V domains shown)
VH: B1 VH with V30P, Y32F, H34F, I35V
VL: B1 VL
Take B5: the “IC50 GM-CSF, TF-1 proliferation” value with human CD131 stood at 0.99 nM.

B6: 9A2-VR39.98 (antibody, V domains shown)
VH: B1 VH with V30E, W31H, H34T
VL: B1 VL
Turning to B6, in the assay with human CD131, the “IC50 GM-CSF, TF-1 proliferation” value stood at 1.44 nM.

B7: 9A2-VR39.97 (antibody, V domains shown)
VH: B1 VH with V30P, Y32F, H34F, I35V
VL: B1 VL
In the case of B7, in the assay with human CD131, the “IC50 GM-CSF, TF-1 proliferation” value is 0.92 nM.

B8: 9A2-VR39.77 (antibody, V domains shown)
VH: B1 VH with V30S, W31H, H34M, I35L, A61Q, D62W, S63P, V64M, K65N, G66K
VL: B1 VL
Turning to B8, the “IC50 GM-CSF, TF-1 proliferation” value in the assay with human CD131 turned out to be 2.03 nM.

B9: 9A2-VR39.112 (antibody, V domains shown)
VH: B1 VH with V30P, W31Y, H34Q, I35V
VL: B1 VL
Regarding B9, the “IC50 GM-CSF, TF-1 proliferation” value in the assay with human CD131 worked out at 1 nM.

B10: 9A2-VR39.162 (antibody, V domains shown)
VH: B1 VH with V30S, W31H, H34M, I35L, T58P, Y59Q, Y60M, D62Q, S63E
VL: B1 VL
For the molecule B10, in the assay with human CD131, the “IC50 GM-CSF, TF-1 proliferation” value came out at 3.6 nM.

B11: 9A2-VR24.04 (antibody, V domains shown)
VH: B1 VH with V30P, H33R, H34V, I35H, N52H, G53T, R54H, G55R, R56H, V57I
VL: B1 VL
Consider B11, for which, in the assay with human CD131, the “IC50 GM-CSF, TF-1 proliferation” value is 0.7 nM.

B12: 9A2-VR39.103 (antibody, V domains shown)
VH: B1 VH with V30Q, W31H, Y32F, H34W, I35V
VL: B1 VL
As to B12, in the assay with human CD131, the “IC50 GM-CSF, TF-1 proliferation” value amounted to 5.14 nM.

B13: 9A2-VR39.105 (antibody, V domains shown)
VH: B1 VH with V30P, W31Y, H34M
VL: B1 VL
In the case of B13, the “IC50 GM-CSF, TF-1 proliferation” value with human CD131 was 0.53 nM.

B14: 9A2-VR39.110 (antibody, V domains shown)
VH: B1 VH
VL: B1 VL
With B14, the “IC50 GM-CSF, TF-1 proliferation” value with human CD131 worked out at 0.28 nM.

B15: 9A2-VR39.116 (antibody, V domains shown)
VH: B1 VH with V30P, Y32F, H33V, H34M, I35V
VL: B1 VL
As for B15, the “IC50 GM-CSF, TF-1 proliferation” value with human CD131 was found to be 7.93 nM.

B16: 9A2-VR39.27 (antibody, V domains shown)
VH: B1 VH with G26R, F27T, T28S, V30M, H34M, I35L
VL: B1 VL
With B16, in the assay with human CD131, the “IC50 GM-CSF, TF-1 proliferation” value was determined as 17.9 nM.

B17: 9A2-VR39.140 (antibody, V domains shown)
VH: B1 VH with G26A, F27Y, T28S, F29E, V30M, H34M, I35L
VL: B1 VL
Regarding B17, in the assay with human CD131, the “IC50 GM-CSF, TF-1 proliferation” value is 42.5 nM.

B18: 9A2-VR39.174 (antibody, V domains shown)
VH: B1 VH with V30S, W31H, H34M, I35L, D62R, S63D, V64H, G66K
VL: B1 VL
Take B18: in the assay with human CD131, the “IC50 GM-CSF, TF-1 proliferation” value was 0.64 nM.

B19: 9A2-VR39.102 (antibody, V domains shown)
VH: B1 VH with V30Q, Y32F, H34Y
VL: B1 VL
As for B19, the “IC50 GM-CSF, TF-1 proliferation” value with human CD131 came out at 2.29 nM.

B20: 9A2-VR39.177 (antibody, V domains shown)
VH: B1 VH with V30S, W31H, H34M, I35L, D62L, S63E, V64Y, G66K
VL: B1 VL
For the molecule B20, the “IC50 GM-CSF, TF-1 proliferation” value with human CD131 was found to be 0.52 nM.

B21: 9A2-VR39.46 (antibody, V domains shown)
VH: B1 VH with G26D, F27V, T28D, V30G, H34M, I35L
VL: B1 VL
On to B21, for which the “IC50 GM-CSF, TF-1 proliferation” value with human CD131 worked out at 3.34 nM.

B22: 9A2-VR39.23 (antibody, V domains shown)
VH: B1 VH with V30H, W31H, H34T, I35V
VL: B1 VL
B22: the “IC50 GM-CSF, TF-1 proliferation” value with human CD131 worked out at 0.9 nM.

B23: 9A2-VR39.139 (antibody, V domains shown)
VH: B1 VH with G26P, F27R, T28W, F29E, V30W, W31N, H34M, I35L
VL: B1 VL
As to B23, the “IC50 GM-CSF, TF-1 proliferation” value with human CD131 was determined as 21.5 nM.

B24: 9A2-VR39.22 (antibody, V domains shown)
VH: B1 VH with V30Q, H34V
VL: B1 VL
Consider B24, for which the “IC50 GM-CSF, TF-1 proliferation” value in the assay with human CD131 is 0.5 nM.

B25: 9A2-VR39.24 (antibody, V domains shown)
VH: B1 VH with V30H, W31H, Y32F, H34V
VL: B1 VL
Take B25: the “IC50 GM-CSF, TF-1 proliferation” value in the assay with human CD131 is 0.42 nM.

B26: 9A2-VR39.28 (antibody, V domains shown)
VH: B1 VH with G26R, F27G, T28A, F29P, V30M, H34M, I35L
VL: B1 VL
On to B26, for which the “IC50 GM-CSF, TF-1 proliferation” value in the assay with human CD131 is 57.2 nM.

B27: 9A2-VR39.148 (antibody, V domains shown)
VH: B1 VH with V30S, W31H, H34M, I35L, Y59H, Y60V, D62Q, S63E
VL: B1 VL
As to B27, the “IC50 GM-CSF, TF-1 proliferation” value with human CD131 is 1.12 nM.

B28: 9A2-VR39.177 Fab (Fab, V domains shown)
VH: B1 VH with V30S, W31H, H34M, I35L, D62L, S63E, V64Y, G66K
VL: B1 VL
notes: recombinant Fab
As for B28, in assay [1], the Kd amounted to 0.15 nM, the koff worked out at 0.000554 s⁻¹ and the kon came out at 3.69e+06 M⁻¹ s⁻¹.
